{
  "source": "patent US20240101716A1",
  "target": "PD-L1 (blocking assay of Example 11) (UniProt Q9NZQ7)",
  "sequence (Q9NZQ7 19-239 limits assumed)": "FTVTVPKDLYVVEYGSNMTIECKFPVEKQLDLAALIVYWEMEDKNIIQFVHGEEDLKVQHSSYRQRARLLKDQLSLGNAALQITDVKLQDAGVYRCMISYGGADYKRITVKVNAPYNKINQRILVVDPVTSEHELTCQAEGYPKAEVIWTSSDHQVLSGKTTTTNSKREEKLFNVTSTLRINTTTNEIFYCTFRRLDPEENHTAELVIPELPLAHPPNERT",
  "data": [
    {"substance": "Human IgG1 (antibody)", "values": [
      {"measurement": "EC50 printed for a flat curve: luminescence stays at the baseline of about 50000 RLU up to Log10 about 2.2 nM (no blockade), PD-1/PD-L1 Blockade Assay", "result": 39.5, "unit": "pM"}
    ]},
    {"substance": "Tecentriq (antibody)", "values": [
      {"measurement": "EC50, luminescence (RLU) in the PD-1/PD-L1 Blockade Assay", "result": 0.318, "unit": "nM"}
    ]}
  ]
}
